For 2 molecules, reduction of binding against WT and Kd results are on record in publication PMC5677968, “Familial STAG2 germline mutation defines a new human cohesinopathy” (NPJ Genomic Medicine, 2017).

In test [1] the target is Myc-STAG2 p.Ser327Asn (human) (UniProt Q8N3U4). Description: co-IP; anti-Myc beads, lysates of HeLa Tet-On cells transfected with Myc-STAG2 WT or mutants; 3 h at 4 °C; washes with lysis buffer containing 200 mM NaCl; blots for endogenous proteins.
Test [2] deals with T1, STAG2(80–930) p.Ser327Asn–SCC1(281–394) complex (human, UniProt Q8N3U4-2 80-930; O60216 281-394, p.Ser327Asn).
T1 construct: STAG2 (SA2), human, residues 80-930, patient germline variant p.Ser327Asn; SCC1 (RAD21), human, residues 281-394, in pGEX-6p1; The methods describe only the WT STAG2(80–930) vector; also called purified STAG2–SCC1 p.Ser327Asn; SA2–SCC1 p.Ser327Asn; source: E. coli, co-expressed, purified (Glutathione Sepharose 4B, PreScission cleavage, ion exchange, size exclusion)
T1 sequence (looked up) 1: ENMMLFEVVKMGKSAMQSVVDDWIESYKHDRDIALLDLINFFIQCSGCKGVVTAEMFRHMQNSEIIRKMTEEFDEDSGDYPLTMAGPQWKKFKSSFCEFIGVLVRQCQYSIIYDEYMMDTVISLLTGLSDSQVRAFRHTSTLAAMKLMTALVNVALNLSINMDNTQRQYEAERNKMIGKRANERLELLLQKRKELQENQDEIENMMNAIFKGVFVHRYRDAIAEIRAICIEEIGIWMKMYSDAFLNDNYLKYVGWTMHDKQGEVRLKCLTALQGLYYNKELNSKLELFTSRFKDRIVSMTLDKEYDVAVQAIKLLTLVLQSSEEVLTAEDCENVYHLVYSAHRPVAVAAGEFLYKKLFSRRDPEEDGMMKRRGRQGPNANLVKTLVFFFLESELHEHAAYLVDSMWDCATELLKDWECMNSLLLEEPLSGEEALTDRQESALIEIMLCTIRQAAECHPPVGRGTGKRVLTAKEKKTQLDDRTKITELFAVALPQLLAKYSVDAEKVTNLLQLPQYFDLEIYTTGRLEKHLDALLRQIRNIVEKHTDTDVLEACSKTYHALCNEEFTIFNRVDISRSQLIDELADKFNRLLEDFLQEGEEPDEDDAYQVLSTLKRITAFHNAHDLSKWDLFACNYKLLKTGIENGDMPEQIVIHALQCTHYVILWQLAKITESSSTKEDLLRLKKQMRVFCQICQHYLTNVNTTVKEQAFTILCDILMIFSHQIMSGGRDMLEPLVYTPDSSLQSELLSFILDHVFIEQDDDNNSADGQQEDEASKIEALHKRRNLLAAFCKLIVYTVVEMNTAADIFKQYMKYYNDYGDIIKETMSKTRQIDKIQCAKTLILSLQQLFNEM
T1 sequence (looked up) 2: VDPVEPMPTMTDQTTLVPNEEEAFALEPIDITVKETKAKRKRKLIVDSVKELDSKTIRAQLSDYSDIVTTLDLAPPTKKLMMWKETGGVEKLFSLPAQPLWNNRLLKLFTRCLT
Put plainly: ITC; MicroCal iTC200, 20 °C; 20 uM STAG2(80–930)–SCC1(281–394) complex in the cell, titrated with 300 uM pSGO1 peptide; 20 mM Tris-HCl pH 7.7, 200 mM NaCl, 5 mM TCEP. Particulars: both partners purified.

For test [3], the target named is T2, STAG2(80–930)–SCC1(281–394) complex, WT (human, UniProt Q8N3U4-2 80-930; O60216 281-394).
T2 construct: STAG2 (SA2), human, residues 80-930, in pET28a; SCC1 (RAD21), human, residues 281-394, in pGEX-6p1; also called purified STAG2–SCC1 WT; SA2–SCC1 complex; source: E. coli, co-expressed, purified (Glutathione Sepharose 4B, PreScission cleavage, ion exchange, size exclusion)
T2 sequence (looked up) 1: T1 sequence (looked up) 1 with N248S
T2 sequence (looked up) 2: T1 sequence (looked up) 2
Described as above. Particulars: both partners purified.

Substitutions are numbered along the chain they refer to. Square brackets hold non-standard residues; d marks the D form. Ends that are not written are not given here. pT = C[C@@H](OP(=O)(O)O)[C@H](N)C(=O)O

Myc-STAG2 p.Ser327Asn (human), sequence (Q8N3U4 other isoform, or with tags, fused parts or gaps p.S327N): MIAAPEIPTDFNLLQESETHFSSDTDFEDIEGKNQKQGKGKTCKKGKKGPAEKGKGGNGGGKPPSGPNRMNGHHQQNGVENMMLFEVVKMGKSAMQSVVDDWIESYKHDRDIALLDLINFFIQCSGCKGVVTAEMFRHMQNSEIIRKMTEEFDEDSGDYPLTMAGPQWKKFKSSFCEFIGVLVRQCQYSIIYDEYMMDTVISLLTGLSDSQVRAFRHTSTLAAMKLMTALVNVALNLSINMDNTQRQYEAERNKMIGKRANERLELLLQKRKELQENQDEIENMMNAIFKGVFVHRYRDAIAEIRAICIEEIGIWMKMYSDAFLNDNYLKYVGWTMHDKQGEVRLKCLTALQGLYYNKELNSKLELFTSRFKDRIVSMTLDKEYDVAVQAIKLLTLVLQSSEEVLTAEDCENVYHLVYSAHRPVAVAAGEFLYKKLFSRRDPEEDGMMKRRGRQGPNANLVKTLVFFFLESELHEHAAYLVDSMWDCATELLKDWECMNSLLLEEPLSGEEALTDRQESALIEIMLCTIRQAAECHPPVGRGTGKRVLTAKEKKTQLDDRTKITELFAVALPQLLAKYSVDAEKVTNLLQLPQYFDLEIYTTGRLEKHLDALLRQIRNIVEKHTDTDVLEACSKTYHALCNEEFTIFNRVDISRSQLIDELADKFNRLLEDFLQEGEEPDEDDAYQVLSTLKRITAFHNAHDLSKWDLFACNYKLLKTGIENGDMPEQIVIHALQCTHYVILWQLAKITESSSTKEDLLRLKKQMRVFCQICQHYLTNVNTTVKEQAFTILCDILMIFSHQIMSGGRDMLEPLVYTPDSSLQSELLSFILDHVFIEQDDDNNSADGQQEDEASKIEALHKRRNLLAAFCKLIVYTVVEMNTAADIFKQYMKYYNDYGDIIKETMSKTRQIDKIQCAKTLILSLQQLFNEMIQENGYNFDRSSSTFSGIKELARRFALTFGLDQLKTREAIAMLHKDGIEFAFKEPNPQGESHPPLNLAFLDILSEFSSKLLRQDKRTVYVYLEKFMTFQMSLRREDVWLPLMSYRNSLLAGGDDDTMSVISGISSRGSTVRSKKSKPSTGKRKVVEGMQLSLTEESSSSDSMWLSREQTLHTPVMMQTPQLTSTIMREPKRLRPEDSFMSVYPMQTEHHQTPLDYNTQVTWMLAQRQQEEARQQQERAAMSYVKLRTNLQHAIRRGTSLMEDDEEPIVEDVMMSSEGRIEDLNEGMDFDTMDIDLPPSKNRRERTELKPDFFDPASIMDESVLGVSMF

Take “endogenous SMC1 (from UniProt Q14683 1-1233) (natural protein)”: the reduction of binding against WT in test [1] stood at 50%.

B1: synthetic phospho-Thr346 SGO1 peptide containing residues 313–353 of human SGO1 (peptide, UniProt Q5FBB7 313-353, looked up)
peptide: KSENKKTVPQKKMHKSVSSNDAYNFNLEEGVHL[pT]PFRQKVS
notes: SGO1, human, residues 313-353; also called pSGO1; phospho-SGO1 peptide; source: synthetic peptide
In the case of B1, the Kd is 0.29 µM in test [2] and 0.23 µM in test [3].

Broadly, the Kd is the constant that tells how readily two partners part at equilibrium.
